From patent publication US10941182 (Amgen, dated 2021)
Starred links: 1 amine or outer side, 2 acyl side, 3 side chain; linkers in the order of their positions; H or OH if unused. Non-standard residues stand in square brackets, D forms with d. Primed or numbered codes have the meaning given here. *: point of attachment. AC4Abu = α-carboxy-4-aminobutyric acid, O=C(C(CCN[*:1])C(=O)[*:3])[*:2]; dBip = N[C@H](Cc1ccc(-c2ccccc2)cc1)C(=O)O; Oic = O=C(O)[C@@H]1C[C@@H]2CCCC[C@@H]2N1; Phe(4-Cl) = N[C@@H](Cc1ccc(Cl)cc1)C(=O)O; dPhe(4-Cl) = N[C@H](Cc1ccc(Cl)cc1)C(=O)O; Phe(4-I) = N[C@@H](Cc1ccc(I)cc1)C(=O)O; γGlu = O=C(O)[C@H](CCC(=O)[*:2])N[*:1]; HOOC(CH2)8CO = O=C(O)CCCCCCCCC(=O)*; d(β3hF) = N[C@@H](CC(=O)O)Cc1ccccc1; NMeR = CN[C@@H](CCCNC(=N)N)C(=O)O; Tridecanoyl = CCCCCCCCCCCCC(=O)*; hArg = N=C(N)NCCCC[C@H](N)C(=O)O; Cha = N[C@@H](CC1CCCCC1)C(=O)O; NMeL = CN[C@@H](CC(C)C)C(=O)O; αMeP = C[C@@]1(C(=O)O)CCCN1; AC4Abu″ = not defined here; β3hP = O=C(O)C[C@@H]1CCCN1; Nle = CCCC[C@H](N)C(=O)O; Deg = CCC(N)(CC)C(=O)O; AEEA = NCCOCCOCC(=O)O; Aib = CC(C)(N)C(=O)O

T1: human APJ receptor (human, UniProt P35414 1-380)
T1 sequence (looked up): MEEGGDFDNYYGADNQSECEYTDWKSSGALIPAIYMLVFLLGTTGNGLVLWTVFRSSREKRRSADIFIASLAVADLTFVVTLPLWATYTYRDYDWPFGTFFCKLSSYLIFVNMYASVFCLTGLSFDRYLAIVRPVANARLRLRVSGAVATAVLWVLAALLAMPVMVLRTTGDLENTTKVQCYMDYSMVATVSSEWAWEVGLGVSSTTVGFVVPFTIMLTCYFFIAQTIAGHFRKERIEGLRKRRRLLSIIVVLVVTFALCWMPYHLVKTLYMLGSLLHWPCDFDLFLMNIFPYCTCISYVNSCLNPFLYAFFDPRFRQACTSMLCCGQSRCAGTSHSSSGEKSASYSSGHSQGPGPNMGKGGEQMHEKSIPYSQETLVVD

T2: rat APJ receptor (rat, UniProt Q9JHG3 1-377)
T2 sequence (looked up): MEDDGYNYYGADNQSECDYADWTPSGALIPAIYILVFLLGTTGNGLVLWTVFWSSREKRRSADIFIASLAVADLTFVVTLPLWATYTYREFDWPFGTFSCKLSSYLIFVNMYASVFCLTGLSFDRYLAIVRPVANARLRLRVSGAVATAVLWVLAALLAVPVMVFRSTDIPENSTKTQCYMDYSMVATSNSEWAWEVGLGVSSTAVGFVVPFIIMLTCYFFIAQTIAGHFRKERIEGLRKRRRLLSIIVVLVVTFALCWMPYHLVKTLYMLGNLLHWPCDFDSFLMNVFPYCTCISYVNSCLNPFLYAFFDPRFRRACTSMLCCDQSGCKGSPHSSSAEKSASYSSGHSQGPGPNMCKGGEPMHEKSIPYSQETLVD

T3: rat APJ receptor (rat, UniProt Q9JHG3 1-377)
T3 sequence (looked up): T2 sequence (looked up)

B1: Apelin polypeptide SEQ ID NO: 410 (peptide)
peptide: Tridecanoyl-[AC4Abu][AEEA][AEEA]QRP[NMeR][Cha]SHKG[Oic][Nle][dPhe(4-Cl)]-OH
SMILES: CCCCCCCCCCCCC(=O)NCCC(C(=O)O)C(=O)NCCOCCOCC(=O)NCCOCCOCC(=O)N[C@@H](CCC(N)=O)C(=O)N[C@@H](CCCNC(=N)N)C(=O)N1CCC[C@H]1C(=O)N(C)[C@@H](CCCNC(=N)N)C(=O)N[C@@H](CC1CCCCC1)C(=O)N[C@@H](CO)C(=O)N[C@@H](Cc1c[nH]cn1)C(=O)N[C@@H](CCCCN)C(=O)NCC(=O)N1[C@H](C(=O)N[C@@H](CCCC)C(=O)N[C@H](Cc2ccc(Cl)cc2)C(=O)O)C[C@@H]2CCCC[C@@H]21
B2: SEQ ID NO: 289 (peptide)
peptide: {HOOC(CH2)8CO}-[γGlu][AEEA][AEEA][hArg][dR]Q[hArg]P[dR][NMeL]SHKG[Oic][Phe(4-I)]P[dBip]-OH
SMILES: CC(C)C[C@@H](C(=O)N[C@@H](CO)C(=O)N[C@@H](Cc1c[nH]cn1)C(=O)N[C@@H](CCCCN)C(=O)NCC(=O)N1[C@H](C(=O)N[C@@H](Cc2ccc(I)cc2)C(=O)N2CCC[C@H]2C(=O)N[C@H](Cc2ccc(-c3ccccc3)cc2)C(=O)O)C[C@@H]2CCCC[C@@H]21)N(C)C(=O)[C@@H](CCCNC(=N)N)NC(=O)[C@@H]1CCCN1C(=O)[C@H](CCCCNC(=N)N)NC(=O)[C@H](CCC(N)=O)NC(=O)[C@@H](CCCNC(=N)N)NC(=O)[C@H](CCCCNC(=N)N)NC(=O)COCCOCCNC(=O)COCCOCCNC(=O)CC[C@H](NC(=O)CCCCCCCCC(=O)O)C(=O)O
B3: Apelin polypeptide SEQ ID NO: 381 (peptide)
peptide: Tridecanoyl-[γGlu][AEEA][AEEA]QRP[NMeR][Cha]SHKG[Oic][Nle]P[dPhe(4-Cl)]-OH
SMILES: CCCCCCCCCCCCC(=O)N[C@@H](CCC(=O)NCCOCCOCC(=O)NCCOCCOCC(=O)N[C@@H](CCC(N)=O)C(=O)N[C@@H](CCCNC(=N)N)C(=O)N1CCC[C@H]1C(=O)N(C)[C@@H](CCCNC(=N)N)C(=O)N[C@@H](CC1CCCCC1)C(=O)N[C@@H](CO)C(=O)N[C@@H](Cc1c[nH]cn1)C(=O)N[C@@H](CCCCN)C(=O)NCC(=O)N1[C@H](C(=O)N[C@@H](CCCC)C(=O)N2CCC[C@H]2C(=O)N[C@H](Cc2ccc(Cl)cc2)C(=O)O)C[C@@H]2CCCC[C@@H]21)C(=O)O
B4: Apelin polypeptide SEQ ID NO: 380 (peptide)
peptide: Tridecanoyl-[γGlu][AEEA][AEEA]QRP[NMeR][Cha]SHKG[Oic][Nle]P[d(β3hF)]-OH
SMILES: CCCCCCCCCCCCC(=O)N[C@@H](CCC(=O)NCCOCCOCC(=O)NCCOCCOCC(=O)N[C@@H](CCC(N)=O)C(=O)N[C@@H](CCCNC(=N)N)C(=O)N1CCC[C@H]1C(=O)N(C)[C@@H](CCCNC(=N)N)C(=O)N[C@@H](CC1CCCCC1)C(=O)N[C@@H](CO)C(=O)N[C@@H](Cc1c[nH]cn1)C(=O)N[C@@H](CCCCN)C(=O)NCC(=O)N1[C@H](C(=O)N[C@@H](CCCC)C(=O)N2CCC[C@H]2C(=O)N[C@@H](CC(=O)O)Cc2ccccc2)C[C@@H]2CCCC[C@@H]21)C(=O)O
B5: Apelin polypeptide SEQ ID NO: 390 (peptide)
peptide: Tridecanoyl-[γGlu][AEEA][AEEA]QRP[NMeR][Cha]SHKG[Oic][Nle]P[Phe(4-Cl)]-OH
SMILES: CCCCCCCCCCCCC(=O)N[C@@H](CCC(=O)NCCOCCOCC(=O)NCCOCCOCC(=O)N[C@@H](CCC(N)=O)C(=O)N[C@@H](CCCNC(=N)N)C(=O)N1CCC[C@H]1C(=O)N(C)[C@@H](CCCNC(=N)N)C(=O)N[C@@H](CC1CCCCC1)C(=O)N[C@@H](CO)C(=O)N[C@@H](Cc1c[nH]cn1)C(=O)N[C@@H](CCCCN)C(=O)NCC(=O)N1[C@H](C(=O)N[C@@H](CCCC)C(=O)N2CCC[C@H]2C(=O)N[C@@H](Cc2ccc(Cl)cc2)C(=O)O)C[C@@H]2CCCC[C@@H]21)C(=O)O
B6: Apelin polypeptide SEQ ID NO: 411 (peptide)
peptide: Tridecanoyl-[AC4Abu][AEEA][AEEA]QRP[NMeR][Cha]SHKG[Oic][Nle][Deg][Phe(4-Cl)]-OH
SMILES: CCCCCCCCCCCCC(=O)NCCC(C(=O)O)C(=O)NCCOCCOCC(=O)NCCOCCOCC(=O)N[C@@H](CCC(N)=O)C(=O)N[C@@H](CCCNC(=N)N)C(=O)N1CCC[C@H]1C(=O)N(C)[C@@H](CCCNC(=N)N)C(=O)N[C@@H](CC1CCCCC1)C(=O)N[C@@H](CO)C(=O)N[C@@H](Cc1c[nH]cn1)C(=O)N[C@@H](CCCCN)C(=O)NCC(=O)N1[C@H](C(=O)N[C@@H](CCCC)C(=O)NC(CC)(CC)C(=O)N[C@@H](Cc2ccc(Cl)cc2)C(=O)O)C[C@@H]2CCCC[C@@H]21
B7: Apelin polypeptide SEQ ID NO: 412 (peptide)
peptide: Tridecanoyl-[AC4Abu][AEEA][AEEA]QRP[NMeR][Cha]SHKG[Oic][Nle][αMeP][Phe(4-Cl)]-OH
SMILES: CCCCCCCCCCCCC(=O)NCCC(C(=O)O)C(=O)NCCOCCOCC(=O)NCCOCCOCC(=O)N[C@@H](CCC(N)=O)C(=O)N[C@@H](CCCNC(=N)N)C(=O)N1CCC[C@H]1C(=O)N(C)[C@@H](CCCNC(=N)N)C(=O)N[C@@H](CC1CCCCC1)C(=O)N[C@@H](CO)C(=O)N[C@@H](Cc1c[nH]cn1)C(=O)N[C@@H](CCCCN)C(=O)NCC(=O)N1[C@H](C(=O)N[C@@H](CCCC)C(=O)N2CCC[C@@]2(C)C(=O)N[C@@H](Cc2ccc(Cl)cc2)C(=O)O)C[C@@H]2CCCC[C@@H]21
B8: Apelin polypeptide SEQ ID NO: 409 (peptide)
peptide: Tridecanoyl-[AC4Abu][AEEA][AEEA]QRP[NMeR][Cha]SHKG[Oic][Nle][Phe(4-Cl)]-OH
SMILES: CCCCCCCCCCCCC(=O)NCCC(C(=O)O)C(=O)NCCOCCOCC(=O)NCCOCCOCC(=O)N[C@@H](CCC(N)=O)C(=O)N[C@@H](CCCNC(=N)N)C(=O)N1CCC[C@H]1C(=O)N(C)[C@@H](CCCNC(=N)N)C(=O)N[C@@H](CC1CCCCC1)C(=O)N[C@@H](CO)C(=O)N[C@@H](Cc1c[nH]cn1)C(=O)N[C@@H](CCCCN)C(=O)NCC(=O)N1[C@H](C(=O)N[C@@H](CCCC)C(=O)N[C@@H](Cc2ccc(Cl)cc2)C(=O)O)C[C@@H]2CCCC[C@@H]21

Key:
Assay in all cases: cell-based or functional assay
human APJ receptor = biological target: T1, human APJ receptor
rat APJ receptor [1] = biological target: T2, rat APJ receptor
rat APJ receptor [2] = biological target: T3, rat APJ receptor; remark: listed apart in the source

Row | Binder | EC50 Human APJ Receptor (GTPγS assay) (human APJ receptor) [pM] | EC50 Rat APJ Receptor (GTPγS assay) (rat APJ receptor [1]) [nM] | EC50 Rat APJ Receptor (rat APJ receptor [2]) [pM]
1 | Tridecanoyl-[γGlu][AEEA][AEEA][dQ]RP[NMeR][Cha]SHKG[Oic][Nle][Aib][Phe(4-Cl)]-OH [Apelin polypeptide SEQ ID NO: 540] | 410 |  | 
2 | B1 | 2460 | 2.68 | 
3 | XXXQRPRLSHKGPXPF ({TDA}[AC4Abu][Aeea][Aeea][BhGln]RP[NMeArg]LSHKGP[Nle]P[4-Cl-F]{COOH}) [SEQ ID NO: 463] |  |  | 128
4 | XXXQRPRLSHKGPXPF ({Subericacid}[AC4Abu][Aeea][Aeea]QRP[NMeArg]LSHKGP[Nle]P[4-Cl-F]{COOH}) [SEQ ID NO: 508] |  |  | 466
5 | B2 |  |  | 1300
6 | Tridecanoyl-[AC4Abu″][AEEA][AEEA]QRP[NMeR][Cha]SHKG[Oic][Nle][Aib][Phe(4-Cl)]-OH (reading uncertain) [Apelin polypeptide SEQ ID NO: 382] | 468 |  | 
7 | B3 | 6120 | 5.42 | 
8 | Tridecanoyl-[AC4Abu″][AEEA][AEEA][hArg][hArg]Q[hArg]P[NMeR][Cha]SHKG[Oic][Nle]P[Phe(4-Cl)]-OH (reading uncertain) [SEQ ID NO: 309] |  |  | 216
9 | XXXQRPRLSHKGPXPF ({TDA}[AC4Abu][Aeea][Aeea]Q[hArg]P[NMeArg][BLeu]SHKGP[Nle]P[4-Cl-F]{COOH}) [Apelin polypeptide SEQ ID NO: 383] | 535 |  | 
10 | B4 | 16700 | 4.77 | 
11 | B5 | 110 | 0.57 | 
12 | B6 | 2100 | 2.94 | 
13 | Tridecanoyl-[AC4Abu″][AEEA][AEEA]QR[β3hP][NMeR][Cha]SHKG[Oic][Nle]P[Phe(4-Cl)]-OH (reading uncertain) [Apelin polypeptide SEQ ID NO: 441] | 1900 |  | 
14 | XXXQRPRLSHKGPXPF ({St}[AC4Abu][Aeea][Aeea]QRP[NMeArg]LSHKGP[Nle]P[4-Cl-F]{COOH}) [SEQ ID NO: 594] |  |  | 528
15 | XXXQRPRLSHKGPXPF ({TDA}[AC4Abu][Aeea][Aeea]QR[aMePro][hArg][aMeLeu]SHKGP[Nle]P[4-Cl-F]{COOH}) [Apelin polypeptide SEQ ID NO: 482] | 86.2 |  | 
16 | B7 | 614 | 0.436 | 
17 | Tridecanoyl-[AC4Abu″][AEEA][AEEA]QRP[NMeR]LSH[Nle]GP[Nle]P[Phe(4-Cl)]-OH (reading uncertain) [Apelin polypeptide SEQ ID NO: 466] | 46.1 |  | 
18 | XXXQRPRLSHKGPXPF ({Succinicacid}[AC4Abu][Aeea][Aeea]QRP[NMeArg]LSHKGP[Nle]P[4-Cl-F]{COOH}) [SEQ ID NO: 497] |  |  | 1390
19 | B8 | 1000 | 0.511 | 
